In patent publication US20050069951A1 (KARO BIO, published 2005):
Where no end group is shown, it is not given here. The star is where a group is joined. Biotin = O=C1N[C@H]2[C@H](CS[C@H]2CCCCC(=O)*)N1

B1: phage-displayed peptide SSEPFSVWPIYKHSR (W library) (peptide)
peptide: SSEPFSVWPIYKHSR
notes: on M13 phage; group 2
B2: phage-displayed peptide SSSTDWLNVWRQLSR (N library) (peptide)
peptide: SSSTDWLNVWRQLSR
notes: on M13 phage; group 1
B3: phage-displayed peptide SSSVPFAPWPVYASR (P library) (peptide)
peptide: SSSVPFAPWPVYASR
notes: on M13 phage; group 2
B4: phage-displayed peptide SSTSLPFNRWPIYSR (N library) (peptide)
peptide: SSTSLPFNRWPIYSR
notes: on M13 phage; group 2
B5: phage-displayed peptide SSGAFKPWPVYSFSR (W library) (peptide)
peptide: SSGAFKPWPVYSFSR
notes: on M13 phage; group 2
B6: phage-displayed peptide SSATDWGRVYSILSR (R library) (peptide)
peptide: SSATDWGRVYSILSR
notes: on M13 phage; group 1
B7: phage-displayed peptide SSASYAPWPIYFASR (W library) (peptide)
peptide: SSASYAPWPIYFASR
notes: on M13 phage; group 2
B8: phage-displayed peptide SSQTDWRKIFQSLSR (K library) (peptide)
peptide: SSQTDWRKIFQSLSR
notes: on M13 phage; group 1
B9: phage-displayed peptide SRQVEVFKPWPVYSR (K library) (peptide)
peptide: SRQVEVFKPWPVYSR
notes: on M13 phage; group 2
B10: phage-displayed peptide SSNYWWQSPVLSRHSR (CWL library) (peptide)
peptide: SSNYWWQSPVLSRHSR
notes: on M13 phage
B11: phage-displayed peptide SSWQGNVLLGNWISR (L library) (peptide)
peptide: SSWQGNVLLGNWISR
notes: on M13 phage
B12: phage-displayed peptide SSSFKPWPIYLGSSR (P library) (peptide)
peptide: SSSFKPWPIYLGSSR
notes: on M13 phage; group 2
B13: phage-displayed peptide SSLLNESRLQWSTSR (R library) (peptide)
peptide: SSLLNESRLQWSTSR
notes: on M13 phage
B14: phage-displayed peptide SVSVGMKPSPRP (PHD12 library) (peptide)
peptide: SVSVGMKPSPRP
notes: on M13 phage
B15: phage-displayed peptide SRLLEVSPGWWQMSR (P library) (peptide)
peptide: SRLLEVSPGWWQMSR
notes: on M13 phage
B16: phage-displayed peptide SSWGDYFNWRDGLSR (N library) (peptide)
peptide: SSWGDYFNWRDGLSR
notes: on M13 phage
B17: phage-displayed peptide SSFRELKPGWWSYSR (P library) (peptide)
peptide: SSFRELKPGWWSYSR
notes: on M13 phage
B18: ProRS-binding phage peptide SRLCDIMPQTVGCSR (P library) (peptide)
peptide: SRLCDIMPQTVGCSR
notes: on M13 phage
B19: ProRS-binding phage peptide SRWCELWSQDIGCSR (X10C library) (peptide)
peptide: SRWCELWSQDIGCSR
notes: on M13 phage
B20: ProRS-binding phage peptide SRWCELWPEGSGCSR (P library) (peptide)
peptide: SRWCELWPEGSGCSR
notes: on M13 phage
B21: ProRS-binding phage peptide SRVCAIWPDLDGCSR (X10C library) (peptide)
peptide: SRVCAIWPDLDGCSR
notes: on M13 phage; SR linkers included as printed; also called most often isolated phage
B22: ProRS-binding phage peptide SRWCDIWPDTGSCSR (P library) (peptide)
peptide: SRWCDIWPDTGSCSR
notes: on M13 phage
B23: ProRS-binding phage peptide SRLCEVWPQTAGCSR (X10C library) (peptide)
peptide: SRLCEVWPQTAGCSR
notes: on M13 phage
B24: ProRS-binding phage peptide SRWCEVWPDKRWCSR (P library) (peptide)
peptide: SRWCEVWPDKRWCSR
notes: on M13 phage
B25: ProRS-binding phage peptide SRWCSLRPQDEGCSR (X10C library) (peptide)
peptide: SRWCSLRPQDEGCSR
notes: on M13 phage
B26: non-biotinylated ProRS peptide (peptide)
peptide: VCAIWPDLDGC
notes: also called non-biotinylated ProRS surrogate ligand
B27: biotinylated UL44 surrogate ligand peptide (peptide)
peptide: Biotin-SGSGEHVCSWGWGRC
modifications: not fully specified (bridges); cysteine pairing not given here
notes: synthetic; pre-complexed with streptavidin alkaline phosphatase (SA-AP) in the ELSA; also called UL44 BioKey
B28: biotinylated peptide TyrRS1 (peptide)
peptide: LYSWPDEQYERP
modifications: also: biotinylated, position not given here
notes: also called TyrRS1B; TyrRS BioKey
B29: phage-displayed peptide SRDWGFWRLPESMASR (CWL library) (peptide)
peptide: SRDWGFWRLPESMASR
notes: on M13 phage
B30: phage-displayed peptide SRDWGFWDWGVDRSR (D library) (peptide)
peptide: SRDWGFWDWGVDRSR
notes: on M13 phage
B31: phage-displayed peptide SSERGSGDRGEKGSR (D library) (peptide)
peptide: SSERGSGDRGEKGSR
notes: on M13 phage
B32: phage-displayed peptide SREWHFWRDYNPTSR (R library) (peptide)
peptide: SREWHFWRDYNPTSR
notes: on M13 phage

Biological target: T1, Agrobacterium faecalis beta-glucosidase (Agrobacterium faecalis, UniProt P12614 1-459, biotinylated with Sulfo NHS-LC-LC biotin, sites not stated)
T1 construct: captured on streptavidin beads or plates; also called β-glucosidase
T1 sequence: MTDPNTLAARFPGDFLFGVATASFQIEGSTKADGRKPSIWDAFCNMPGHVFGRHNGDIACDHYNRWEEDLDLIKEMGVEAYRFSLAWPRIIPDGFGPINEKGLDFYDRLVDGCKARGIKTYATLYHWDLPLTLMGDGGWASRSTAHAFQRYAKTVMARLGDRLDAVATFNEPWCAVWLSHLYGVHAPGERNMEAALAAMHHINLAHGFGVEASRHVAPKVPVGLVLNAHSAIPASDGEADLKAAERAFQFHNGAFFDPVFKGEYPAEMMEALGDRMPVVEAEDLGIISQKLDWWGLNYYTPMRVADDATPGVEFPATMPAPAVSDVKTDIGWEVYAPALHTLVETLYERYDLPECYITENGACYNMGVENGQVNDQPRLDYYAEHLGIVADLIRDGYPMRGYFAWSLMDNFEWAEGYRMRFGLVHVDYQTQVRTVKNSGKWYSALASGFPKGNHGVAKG
Experiment: phage ELISA, biotinylated target on streptavidin plate

Binder	binding result
B1	binds
B2	binds
B3	binds
B4	binds
B5	binds
B6	binds
B7	binds
B8	binds

Biological target: T2, Yeast alcohol dehydrogenase (yeast, UniProt P00330 2-348)
T2 sequence (looked up): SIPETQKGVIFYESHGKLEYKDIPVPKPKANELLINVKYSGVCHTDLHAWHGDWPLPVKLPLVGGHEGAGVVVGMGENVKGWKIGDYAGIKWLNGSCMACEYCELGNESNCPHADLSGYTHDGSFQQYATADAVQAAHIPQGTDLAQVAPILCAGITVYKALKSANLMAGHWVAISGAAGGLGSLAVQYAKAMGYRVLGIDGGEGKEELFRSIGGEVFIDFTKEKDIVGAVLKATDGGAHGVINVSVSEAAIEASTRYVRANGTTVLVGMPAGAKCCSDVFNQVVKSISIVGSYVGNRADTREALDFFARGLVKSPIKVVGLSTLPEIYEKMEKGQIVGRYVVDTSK
Experiment: cross reactivity phage ELISA

Binder	fold ELISA signal on the specific target vs any other targets tested
B9	≥ 10 fold
B10	≥ 10 fold
B11	≥ 10 fold
B12	≥ 10 fold
B13	≥ 10 fold
B14	≥ 10 fold

Biological target: T3, carboxypeptidase B from pig pancreas (pig, UniProt P09955 111-416)
T3 sequence (looked up): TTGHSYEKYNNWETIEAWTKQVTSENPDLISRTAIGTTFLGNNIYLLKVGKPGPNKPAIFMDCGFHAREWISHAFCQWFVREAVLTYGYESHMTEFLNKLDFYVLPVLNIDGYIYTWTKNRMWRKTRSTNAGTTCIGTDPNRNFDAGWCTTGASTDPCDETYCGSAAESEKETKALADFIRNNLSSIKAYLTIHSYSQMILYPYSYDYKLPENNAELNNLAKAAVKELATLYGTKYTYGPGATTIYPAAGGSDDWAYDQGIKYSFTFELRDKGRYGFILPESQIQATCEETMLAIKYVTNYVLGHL
Experiment: cross reactivity phage ELISA

Binder	fold ELISA signal on the specific target vs any other targets tested
B15	≥ 10 fold
B16	≥ 10 fold
B17	≥ 10 fold

Biological target: T4, E. coli proline tRNA synthetase (E. coli, UniProt P16659 1-572)
T4 construct: also called ProRS; E. coli ProRS
T4 sequence: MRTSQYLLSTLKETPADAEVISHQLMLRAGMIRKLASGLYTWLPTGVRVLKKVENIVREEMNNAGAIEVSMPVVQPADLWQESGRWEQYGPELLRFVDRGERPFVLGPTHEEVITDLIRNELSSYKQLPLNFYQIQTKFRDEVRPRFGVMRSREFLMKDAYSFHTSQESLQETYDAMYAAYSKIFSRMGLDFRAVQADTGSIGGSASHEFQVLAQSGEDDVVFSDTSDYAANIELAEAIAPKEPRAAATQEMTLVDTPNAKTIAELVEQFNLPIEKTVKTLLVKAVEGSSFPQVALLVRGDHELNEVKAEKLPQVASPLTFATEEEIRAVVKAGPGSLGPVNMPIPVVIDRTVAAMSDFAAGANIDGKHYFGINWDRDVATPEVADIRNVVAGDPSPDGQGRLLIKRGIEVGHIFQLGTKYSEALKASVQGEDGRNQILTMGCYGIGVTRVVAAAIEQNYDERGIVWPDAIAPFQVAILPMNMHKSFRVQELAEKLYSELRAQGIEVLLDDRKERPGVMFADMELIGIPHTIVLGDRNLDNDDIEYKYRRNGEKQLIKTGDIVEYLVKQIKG
Experiment: phage ELISA on immobilized ProRS and a variety of proteins

Binder	binding result
B18	binds
B19	binds
B20	binds
B21	binds
B22	binds
B23	binds
B24	binds
B25	binds

Biological target: T4, E. coli proline tRNA synthetase
Experiment: tRNA charging assay (enzyme inhibition), competitive in respect to proline

Binder	Ki
B26	> 500 µM

Biological target: streptavidin (UniProt P22629 37-163, limits assumed)
Sequence (P22629 37-163 limits assumed): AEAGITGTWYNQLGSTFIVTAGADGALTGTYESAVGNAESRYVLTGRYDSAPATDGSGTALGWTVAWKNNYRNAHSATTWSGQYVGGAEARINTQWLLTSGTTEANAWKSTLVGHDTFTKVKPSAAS
Experiment: ELSA: biotinylated peptide pre-complexed with SA-AP, immobilized target
Method: (§1) Target protein was immobilized in microtiter wells by incubating 0.5-2.0 μg per well in 100 μl of 0.1 M NaHCO₃ overnight at 4° C. […] During the 1 hour blocking period, the SA-AP:surrogate ligand conjugate was prepared by mixing 2 μg SA-AP and 50 pmol biotinylated surrogate ligand for each well of target protein. (This corresponds to a 1:1 ratio of biotinylated peptide to biotin binding sites.) The mixture was incubated at room temperature for 15-20 minutes and then diluted with Tris-buffered saline-Tween-20 (TBST) 10 mM Tris-HCl, pH 8.0, 150 mM NaCl, 0.05% Tween-20 such that there was 100 μl of conjugate per well.
(§2) After blocking, the wells were washed once with 200 μl TBST. The surrogate ligand:SA-AP conjugate was then added (100 μl/well) and incubated at room temperature for 2 hours. […] The assay was developed by adding 100 μl of pNPP and incubating at room temperature for 5-10 minutes. The absorbance was read at 405 nm.

Binder	binding result
B27	no binding

Biological target: T5, GST (UniProt P08515 1-218 = GST)
T5 construct: also called glutathione-S-transferase
T5 sequence (P08515 whole entry): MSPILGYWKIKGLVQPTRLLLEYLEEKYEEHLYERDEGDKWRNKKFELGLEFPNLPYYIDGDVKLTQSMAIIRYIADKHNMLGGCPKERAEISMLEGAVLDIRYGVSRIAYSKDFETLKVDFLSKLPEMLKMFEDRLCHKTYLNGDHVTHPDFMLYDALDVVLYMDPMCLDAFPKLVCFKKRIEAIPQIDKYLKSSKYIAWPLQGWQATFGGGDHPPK
Experiment: as above
Method: as §1, §2

Binder	binding result
B27	no binding

Biological target: T4, E. coli proline tRNA synthetase
Experiment: ELSA, immobilized targets (legend of FIG. 17)

Binder	binding result
B28	no binding

Biological target: T6, biotinylated ProRS (E. coli, UniProt P16659 1-572, biotinylated with Sulfo NHS-LC-LC biotin, sites not stated)
T6 construct: also called biotinylated E. coli ProRS
T6 sequence: T4 sequence
Experiment: phage ELISA, biotinylated target

Binder	binding result
B29	binds
B30	binds
B31	binds
B32	binds

Biological target: T4, E. coli proline tRNA synthetase
Experiment: ELSA, immobilized ProRS

Binder	binding result
B27	no binding
